Test results from paper doi:10.1101/303024 (bioRxiv, 2018).

Molecular target: T1, Cdc24-6xHis (full-length, wild type) (S. cerevisiae (budding yeast), UniProt P11433 1-854)
T1 sequence: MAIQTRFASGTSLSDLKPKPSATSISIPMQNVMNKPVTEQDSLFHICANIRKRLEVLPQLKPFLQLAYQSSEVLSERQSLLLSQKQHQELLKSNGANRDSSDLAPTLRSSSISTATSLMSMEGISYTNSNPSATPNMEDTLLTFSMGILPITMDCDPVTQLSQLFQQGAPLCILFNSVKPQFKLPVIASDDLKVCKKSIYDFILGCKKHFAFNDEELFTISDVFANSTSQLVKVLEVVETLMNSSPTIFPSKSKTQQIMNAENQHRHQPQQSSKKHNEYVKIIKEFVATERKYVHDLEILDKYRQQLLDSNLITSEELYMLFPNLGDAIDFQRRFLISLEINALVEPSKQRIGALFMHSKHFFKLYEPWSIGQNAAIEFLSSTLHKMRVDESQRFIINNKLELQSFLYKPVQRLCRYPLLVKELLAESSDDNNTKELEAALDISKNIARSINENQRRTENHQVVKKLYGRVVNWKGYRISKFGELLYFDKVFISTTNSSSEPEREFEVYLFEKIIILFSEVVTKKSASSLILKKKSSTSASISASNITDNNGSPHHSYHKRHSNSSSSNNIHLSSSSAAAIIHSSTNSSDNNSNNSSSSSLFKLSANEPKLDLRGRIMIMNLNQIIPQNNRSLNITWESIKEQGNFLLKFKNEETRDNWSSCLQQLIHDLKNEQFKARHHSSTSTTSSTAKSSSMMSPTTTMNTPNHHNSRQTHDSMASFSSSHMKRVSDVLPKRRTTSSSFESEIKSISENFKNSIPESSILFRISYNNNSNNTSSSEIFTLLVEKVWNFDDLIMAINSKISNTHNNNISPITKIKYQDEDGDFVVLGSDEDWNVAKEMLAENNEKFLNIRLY
Test: liposome floatation

binding result: binds
B1: Bem1 (full-length, wild type) (natural protein)
chain: MLKNFKLSKRDSNGSKGRITSADISTPSHDNGSVIKHIKTVPVRYLSSSSTPVKSQRDSSPKNRHNSKDITSPEKVIKAKYSYQAQTSKELSFMEGEFFYVSGDEKDWYKASNPSTGKEGVVPKTYFEVFDRTKPSSVNGSNSSSRKVTNDSLNMGSLYAIVLYDFKAEKADELTTYVGENLFICAHHNCEWFIAKPIGRLGGPGLVPVGFVSIIDIATGYATGNDVIEDIKSVNLPTVQEWKSNIARYKASNISLGSVEQQQQQSITKPQNKSAKLVDGELLVKASVESFGLEDEKYWFLVCCELSNGKTRQLKRYYQDFYDLQVQLLDAFPAEAGKLRDAGGQWSKRIMPYIPGPVPYVTNSITKKRKEDLNIYVADLVNLPDYISRSEMVHSLFVVLNNGFDREFERDENQNNIKTLQENDTATFATASQTSNFASTNQDNTLTGEDLKLNKKLSDLSLSGSKQAPAQSTSGLKTTKIKFYYKDDIFALMLKGDTTYKELRSKIAPRIDTDNFKLQTKLFDGSGEEIKTDSQVSNIIQAKLKISVHDI
